For series [1], the target named is T1, Mlh1-Mlh3 (Saccharomyces cerevisiae) (UniProt P38920+Q12083).
T1 sequence 1: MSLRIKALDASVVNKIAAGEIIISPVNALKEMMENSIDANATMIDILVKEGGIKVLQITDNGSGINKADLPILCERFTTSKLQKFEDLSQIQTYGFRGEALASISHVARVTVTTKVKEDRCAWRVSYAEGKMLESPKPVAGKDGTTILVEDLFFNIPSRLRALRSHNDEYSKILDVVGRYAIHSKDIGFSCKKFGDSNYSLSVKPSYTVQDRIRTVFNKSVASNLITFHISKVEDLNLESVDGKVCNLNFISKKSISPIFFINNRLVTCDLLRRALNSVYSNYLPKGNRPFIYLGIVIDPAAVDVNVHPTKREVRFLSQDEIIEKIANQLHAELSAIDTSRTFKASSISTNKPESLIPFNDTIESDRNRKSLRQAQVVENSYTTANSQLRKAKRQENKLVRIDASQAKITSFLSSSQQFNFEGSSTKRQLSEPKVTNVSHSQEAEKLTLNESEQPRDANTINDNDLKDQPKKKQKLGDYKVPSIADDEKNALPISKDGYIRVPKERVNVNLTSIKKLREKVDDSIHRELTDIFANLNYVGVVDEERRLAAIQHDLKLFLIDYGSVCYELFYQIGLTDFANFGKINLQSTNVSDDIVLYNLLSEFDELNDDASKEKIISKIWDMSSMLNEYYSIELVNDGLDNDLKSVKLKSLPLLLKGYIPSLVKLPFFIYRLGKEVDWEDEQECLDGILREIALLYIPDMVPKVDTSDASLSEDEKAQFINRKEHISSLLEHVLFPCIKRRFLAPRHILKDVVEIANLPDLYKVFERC
T1 sequence 2: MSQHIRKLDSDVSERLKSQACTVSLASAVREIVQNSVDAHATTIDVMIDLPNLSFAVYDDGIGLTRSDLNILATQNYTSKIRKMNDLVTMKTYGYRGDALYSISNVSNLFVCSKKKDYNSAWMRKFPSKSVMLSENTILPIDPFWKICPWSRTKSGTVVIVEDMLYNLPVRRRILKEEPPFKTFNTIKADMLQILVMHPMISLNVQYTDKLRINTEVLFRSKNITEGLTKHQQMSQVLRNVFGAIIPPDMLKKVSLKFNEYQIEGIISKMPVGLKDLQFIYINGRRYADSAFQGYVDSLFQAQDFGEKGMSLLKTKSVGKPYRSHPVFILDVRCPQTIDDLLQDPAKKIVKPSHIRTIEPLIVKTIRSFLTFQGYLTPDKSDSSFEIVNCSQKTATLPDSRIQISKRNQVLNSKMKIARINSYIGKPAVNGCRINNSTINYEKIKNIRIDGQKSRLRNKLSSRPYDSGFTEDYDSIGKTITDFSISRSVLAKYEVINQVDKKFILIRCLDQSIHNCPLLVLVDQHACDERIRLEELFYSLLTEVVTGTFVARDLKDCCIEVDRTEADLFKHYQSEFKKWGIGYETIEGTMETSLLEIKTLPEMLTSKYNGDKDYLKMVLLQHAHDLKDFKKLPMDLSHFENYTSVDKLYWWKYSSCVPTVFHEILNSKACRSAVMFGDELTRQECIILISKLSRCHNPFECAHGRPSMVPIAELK
Put plainly: filter binding. The settings on record: 2 mM Mg2+; Filter binding: 20 mM Tris-HCl pH 7.5, 0.01 mM EDTA, 2 mM MgCl2, 40 ug/mL BSA, 0.1 mM DTT, 15 uM nucleotide DNA, 10 min at 30 C (20 or 150 mM KCl in Fig 4B …).

Series [2] has as its target Yeast wild-type Mlh1-Mlh3 (yeast (S. cerevisiae)) (UniProt P38920).

As a reminder, the Kd is the constant that tells how readily two partners part at equilibrium. A high value points to weaker binding. In turn, 2.7 kb linear pUC18 (HindIII) displayed a Kd in series [1] of 100 nM. 7 kb linear pEAE399 (HindIII): the Kd in series [1] is 65 nM. Still for that read-out and setting: with 12 kb linear pEAE99 (HindIII) the figure was 40 nM. In series [2], “Yeast Msh2-Msh3 (from UniProt P25847 1-964; P25336 1-1018) (complex)” displayed an amount of nicked product made by Mlh1-Mlh3 on the 7.2 kb +8 loop circular substrate, without and with Msh2-Msh3 (10% without) of 21%; an amount of nicked product made by Mlh1-Mlh3 on the 7.2 kb homoduplex circular substrate, without and with Msh2-Msh3 (15% without) of 36%.

The values above are taken from publication PMC5409509.
